Residue numbers refer to the chain shown, from its start. Names may count otherwise.

The chains are these.
B1: HA-tagged RalA S11A mutant (enzyme, not shown: small tags and cut ends)
chain: MAANKPKGQNALALHKVIMVGSGGVGKSALTLQFMYDEFVEDYEPTKADSYRKKVVLDGEEVQIDILDTAGQEDYAAIRDNYFRSGEGFLCVFSITEMESFAATADFREQILRVKEDENVPFLLVGNKSDLEDKRQVSVEEAKNRAEQWNVNYVETSAKTRANVDKVFFDLMREIRARKMEDSKEKNGKKKRKSLAKRIRERC
notes: also called S11A RalA mutant
B2: cancer-derived FLAG-tagged PP2A Aβ mutant P65S (other, UniProt P30154 1-601, looked up, not shown: small tags and cut ends)
chain: MAGASELGTGPGAAGGDGDDSLYPIAVLIDELRNEDVQLRLNSIKKLSTIALALGVERTRSELLSFLTDTIYDEDEVLLALAEQLGNFTGLVGGPDFAHCLLPPLENLATVEETVVRDKAVESLRQISQEHTPVALEAYFVPLVKRLASGDWFTSRTSACGLFSVCYPRASNAVKAEIRQQFRSLCSDDTPMVRRAAASKLGEFAKVLELDSVKSEIVPLFTSLASDEQDSVRLLAVEACVSIAQLLSQDDLETLVMPTLRQAAEDKSWRVRYMVADRFSELQKAMGPKITLNDLIPAFQNLLKDCEAEVRAAAAHKVKELGENLPIEDRETIIMNQILPYIKELVSDTNQHVKSALASVIMGLSTILGKENTIEHLLPLFLAQLKDECPDVRLNIISNLDCVNEVIGIRQLSQSLLPAIVELAEDAKWRVRLAIIEYMPLLAGQLGVEFFDEKLNSLCMAWLVDHVYAIREAATNNLMKLVQKFGTEWAQNTIVPKVLVMANDPNYLHRMTTLFCINALSEACGQEITTKQMLPIVLKMAGDQVANVRFNVAKSLQKIGPILDTNALQGEVKPVLQKLGQDEDMDVKYFAQEAISVLALA
notes: Overexpressed in HEK TER cells
B3: cancer-derived FLAG-tagged PP2A Aβ mutant G8R (other, UniProt P30154 1-601, looked up, not shown: small tags and cut ends)
chain: B2 chain with G8R, S65P
notes: Overexpressed in HEK TER cells; the shRNA-resistant form carries silent substitutions only; also called G8R Aβ mutant
B4: wild type (WT) FLAG epitope-tagged version of PP2A Aβ (other, UniProt P30154 1-601, looked up, not shown: small tags and cut ends)
chain: B2 chain with S65P
notes: also called wtPP2A Aβ; FLAG-tagged Aβ
B5: cancer-derived FLAG-tagged PP2A Aβ mutant D504G (other, UniProt P30154 1-601, looked up, not shown: small tags and cut ends)
chain: B2 chain with S65P, D504G
notes: as for B2
B6: cancer-derived FLAG-tagged PP2A Aβ mutant K343E (other, UniProt P30154 1-601, looked up, not shown: small tags and cut ends)
chain: B2 chain with S65P, K343E
notes: as for B2
B7: cancer-derived FLAG-tagged PP2A Aβ mutant V545A (other, UniProt P30154 1-601, looked up, not shown: small tags and cut ends)
chain: B2 chain with S65P, V545A
notes: as for B2
B8: cancer-derived FLAG-tagged PP2A Aβ mutant L101P/V448A (other, UniProt P30154 1-601, looked up, not shown: small tags and cut ends)
chain: B2 chain with S65P, L101P, V448A
notes: as for B2
B9: cancer-derived FLAG-tagged PP2A Aβ mutant L101P (other, UniProt P30154 1-601, looked up, not shown: small tags and cut ends)
chain: B2 chain with S65P, L101P
notes: as for B2
B10: cancer-derived FLAG-tagged PP2A Aβ mutant V448A (other, UniProt P30154 1-601, looked up, not shown: small tags and cut ends)
chain: B2 chain with S65P, V448A
notes: as for B2
B11: cancer-derived FLAG-tagged PP2A Aβ mutant ΔE344-E388 (other)
chain: MDYKDDDDKAGASELGTGPGAAGGDGDDSLYPIAVLIDELRNEDVQLRLNSIKKLSTIALALGVERTRSELLPFLTDTIYDEDEVLLALAEQLGNFTGLVGGPDFAHCLLPPLENLATVEETVVRDKAVESLRQISQEHTPVALEAYFVPLVKRLASGDWFTSRTSACGLFSVCYPRASNAVKAEIRQQFRSLCSDDTPMVRRAAASKLGEFAKVLELDSVKSEIVPLFTSLASDEQDSVRLLAVEACVSIAQLLSQDDLETLVMPTLRQAAEDKSWRVRYMVADRFSELQKAMGPKITLNDLIPAFQNLLKDCEAEVRAAAAHKVKELGENLPIEDRETIIMNQILPYIKCPDVRLNIISNLDCVNEVIGIRQLSQSLLPAIVELAEDAKWRVRLAIIEYMPLLAGQLGVEFFDEKLNSLCMAWLVDHVYAIREAATNNLMKLVQKFGTEWAQNTIVPKVLVMANDPNYLHRMTTLFCINALSEACGQEITTKQMLPIVLKMAGDQVANVRFNVAKSLQKIGPILDTNALQGEVKPVLQKLGQDEDMDVKYFAQEAISVLALA
notes: Deletion of exon 9, in-frame deletion of 45 amino acids; Overexpressed in HEK TER cells; also called D344-388
B12: PP2A regulatory subunit B55α (other, UniProt P63151 2-447, looked up)
chain: AGAGGGNDIQWCFSQVKGAVDDDVAEADIISTVEFNHSGELLATGDKGGRVVIFQQEQENKIQSHSRGEYNVYSTFQSHEPEFDYLKSLEIEEKINKIRWLPQKNAAQFLLSTNDKTIKLWKISERDKRPEGYNLKEEDGRYRDPTTVTTLRVPVFRPMDLMVEASPRRIFANAHTYHINSISINSDYETYLSADDLRINLWHLEITDRSFNIVDIKPANMEELTEVITAAEFHPNSCNTFVYSSSKGTIRLCDMRASALCDRHSKLFEEPEDPSNRSFFSEIISSISDVKFSHSGRYMMTRDYLSVKIWDLNMENRPVETYQVHEYLRSKLCSLYENDCIFDKFECCWNGSDSVVMTGSYNNFFRMFDRNTKRDITLEASRENNKPRTVLKPRKVCASGKRKKDEISVDSLDFNKKILHTAWHPKENIIAVATTNNLYIFQDKVN
notes: Endogenous protein found in anti-FLAG immune complexes by immunoblot
B13: HA-tagged wild-type RalA (enzyme, not shown: small tags and cut ends)
chain: B1 chain with A11S
notes: phosphorylation state not separated; also called HA-tagged RalA; HA-RalA
B14: GST-tagged SV40 small t antigen (ST) (other)
chain: MDKVLNREESLQLMDLLGLERSAWGNIPLMRKAYLKKCKEFHPDKGGDEEKMKKMNTLYKKMEDGVKYAHQPDFGGFWDATEVFASSLNPGVDAMYCKQWPECAKKMSANCICLLCLLRMKHENRKLYRKDPLVWVDCYCFDCFRMWFGLDLCEGTLLLWCDIIGQTTYRDLKL
notes: also called GST-tagged ST; SV40 ST; not shown: GST tag

T1 sequence (Q13362 whole entry): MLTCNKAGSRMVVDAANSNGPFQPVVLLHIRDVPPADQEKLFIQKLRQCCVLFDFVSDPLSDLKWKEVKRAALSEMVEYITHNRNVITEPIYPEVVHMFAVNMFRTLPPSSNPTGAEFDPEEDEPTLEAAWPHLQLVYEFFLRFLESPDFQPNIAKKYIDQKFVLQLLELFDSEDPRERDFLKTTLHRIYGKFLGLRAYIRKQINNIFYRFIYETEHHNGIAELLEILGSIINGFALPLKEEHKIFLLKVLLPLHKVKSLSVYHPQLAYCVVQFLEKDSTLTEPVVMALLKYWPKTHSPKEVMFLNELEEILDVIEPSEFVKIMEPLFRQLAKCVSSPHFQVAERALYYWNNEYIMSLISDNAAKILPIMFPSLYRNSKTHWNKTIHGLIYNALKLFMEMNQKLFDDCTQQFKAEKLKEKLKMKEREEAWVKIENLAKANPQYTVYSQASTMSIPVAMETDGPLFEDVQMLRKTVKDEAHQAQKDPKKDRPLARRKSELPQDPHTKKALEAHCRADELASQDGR
T3 sequence (Q15172 2-486 limits assumed): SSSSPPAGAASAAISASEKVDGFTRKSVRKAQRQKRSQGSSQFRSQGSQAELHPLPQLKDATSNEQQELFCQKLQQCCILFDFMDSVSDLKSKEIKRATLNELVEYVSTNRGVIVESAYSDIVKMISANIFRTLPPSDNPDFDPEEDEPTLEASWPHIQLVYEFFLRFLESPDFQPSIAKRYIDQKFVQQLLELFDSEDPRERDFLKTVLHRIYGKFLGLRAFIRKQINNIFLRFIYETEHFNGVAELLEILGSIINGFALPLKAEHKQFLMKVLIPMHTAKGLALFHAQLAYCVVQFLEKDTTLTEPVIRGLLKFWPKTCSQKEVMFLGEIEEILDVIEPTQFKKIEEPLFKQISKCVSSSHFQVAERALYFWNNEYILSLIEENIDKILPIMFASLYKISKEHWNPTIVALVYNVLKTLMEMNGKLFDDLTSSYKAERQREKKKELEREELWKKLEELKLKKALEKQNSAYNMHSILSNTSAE

The target of the first assay is B4. The assay is described as follows: anti-FLAG agarose co-IP from 293T cells, immunoblot. Background: In western blotting, separated proteins are transferred to a membrane and probed.
Description: (A) Immunoblot showing phosphorylated RalA and total RalA levels in HEK TER cells expressing shGFP or shAβ. Immunoprecipitations were performed using a phosphoserine antibody. Immunoblotting was performed using anti-Ral-antibody. WCL=whole cell lysate. (B) Immunoblot showing interaction between Aβ and RalA mutants.
To determine if these newly identified serine residues were the target of Aβ-containing PP2A complexes, we replaced each of these three serine residues with alanine using site-directed mutagenesis to generate HA-tagged S11A, S183A and S194A RalA mutants. […] We then determined whether these RalA mutants retained the ability to bind Aβ, as follows. Briefly, Aβ-specific complexes were isolated using anti-FLAG agarose followed by immunoblotting using FLAG or RalA specific antibodies.
Regarding B1, the binding result is listed as “binds”.

The next assay concerns the target T1, PP2A regulatory subunit B56γ (human (endogenous in human HEK TER …, UniProt Q13362 1-524)). The assay is described as follows: anti-FLAG co-IP from HEK TER cells, immunoblot, densitometry; +++ >90%, ++ 50-90%, + <50%.
As for B2, the “binding level (percent, co-immunoprecipitation densitometry)” value was < 50%.

As for B3, the “binding level (percent, co-immunoprecipitation densitometry)” value was < 50%.

The target in another assay is T2, PP2A catalytic subunit Cα (human (endogenous in human HEK TER or …, UniProt P67775 1-309)).
T2 construct: Endogenous protein found in anti-FLAG immune complexes by immunoblot or mass spectroscopy; also called PP2A catalytic Cα
T2 sequence (P67775 whole entry): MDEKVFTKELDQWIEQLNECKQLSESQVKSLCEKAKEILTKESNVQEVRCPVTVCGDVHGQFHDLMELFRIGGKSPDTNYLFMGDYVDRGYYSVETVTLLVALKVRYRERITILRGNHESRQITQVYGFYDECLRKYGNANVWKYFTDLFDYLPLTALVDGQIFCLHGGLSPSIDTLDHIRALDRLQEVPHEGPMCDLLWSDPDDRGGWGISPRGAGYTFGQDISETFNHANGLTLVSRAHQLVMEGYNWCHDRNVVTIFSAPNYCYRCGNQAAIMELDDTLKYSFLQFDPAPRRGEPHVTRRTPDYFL
The assay is described as above.
For the molecule B4, the “binding level (percent, co-immunoprecipitation densitometry)” value was > 90%.

With B5, the “binding level (percent, co-immunoprecipitation densitometry)” value was < 50%.

For B6, the “binding level (percent, co-immunoprecipitation densitometry)” value was < 50%.

In the case of B2, the “binding level (percent, co-immunoprecipitation densitometry)” value lay in the range of 50 to 90%.

As for B7, the “binding level (percent, co-immunoprecipitation densitometry)” value was < 50%.

As for B3, the “binding level (percent, co-immunoprecipitation densitometry)” value is 50 to 90%.

A further assay concerns the target T3, PP2A regulatory subunit B56α (human (endogenous in human HEK TER …, UniProt Q15172 2-486, limits assumed)).
T3 construct: Endogenous protein found in anti-FLAG immune complexes by immunoblot
The description is as above.
For the molecule B4, the “binding level (percent, co-immunoprecipitation densitometry)” value is > 90%.

In the case of B5, the “binding level (percent, co-immunoprecipitation densitometry)” value is > 90%.

As for B6, the “binding level (percent, co-immunoprecipitation densitometry)” value is < 50%.

B2: the “binding level (percent, co-immunoprecipitation densitometry)” value was < 50%.

As for B7, the “binding level (percent, co-immunoprecipitation densitometry)” value is < 50%.

B3: the “binding level (percent, co-immunoprecipitation densitometry)” value was > 90%.

The target in a further assay is T4, PP2A regulatory subunit B56ε (human (endogenous in human HEK TER …, UniProt Q16537 2-467, limits assumed)).
T4 construct: Endogenous protein found in anti-FLAG immune complexes by immunoblot
T4 sequence (Q16537 2-467 limits assumed): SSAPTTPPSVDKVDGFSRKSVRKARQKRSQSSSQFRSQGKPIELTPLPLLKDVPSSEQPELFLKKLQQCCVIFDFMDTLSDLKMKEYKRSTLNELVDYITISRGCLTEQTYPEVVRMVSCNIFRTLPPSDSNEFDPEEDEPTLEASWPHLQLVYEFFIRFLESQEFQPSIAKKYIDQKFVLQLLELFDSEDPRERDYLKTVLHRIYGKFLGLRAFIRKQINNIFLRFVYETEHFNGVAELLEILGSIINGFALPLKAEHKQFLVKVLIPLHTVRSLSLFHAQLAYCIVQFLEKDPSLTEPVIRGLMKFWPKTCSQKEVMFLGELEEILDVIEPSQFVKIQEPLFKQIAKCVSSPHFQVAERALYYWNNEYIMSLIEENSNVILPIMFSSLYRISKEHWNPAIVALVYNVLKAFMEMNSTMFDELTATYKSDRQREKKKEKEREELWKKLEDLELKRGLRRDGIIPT
Described as above.
As to B4, the “binding level (percent, co-immunoprecipitation densitometry)” value was > 90%.

B8: the “binding level (percent, co-immunoprecipitation densitometry)” value was < 50%.

B5: the “binding level (percent, co-immunoprecipitation densitometry)” value was > 90%.

With B6, the “binding level (percent, co-immunoprecipitation densitometry)” value is 50 to 90%.

As for B9, the “binding level (percent, co-immunoprecipitation densitometry)” value is > 90%.

For B2, the “binding level (percent, co-immunoprecipitation densitometry)” value is > 90%.

As for B7, the “binding level (percent, co-immunoprecipitation densitometry)” value is < 50%.

In the case of B10, the “binding level (percent, co-immunoprecipitation densitometry)” value was < 50%.

B3: the “binding level (percent, co-immunoprecipitation densitometry)” value is > 90%.

The target of the next assay is B12. The assay is described as above.
As to B4, the “binding level (percent, co-immunoprecipitation densitometry)” value is > 90%.

In the case of B5, the “binding level (percent, co-immunoprecipitation densitometry)” value lay within 50 to 90%.

Regarding B6, the “binding level (percent, co-immunoprecipitation densitometry)” value was 50 to 90%.

For the molecule B9, the “binding level (percent, co-immunoprecipitation densitometry)” value is < 50%.

With B2, the “binding level (percent, co-immunoprecipitation densitometry)” value was > 90%.

In the case of B7, the “binding level (percent, co-immunoprecipitation densitometry)” value was > 90%.

As to B10, the “binding level (percent, co-immunoprecipitation densitometry)” value was < 50%.

Regarding B3, the “binding level (percent, co-immunoprecipitation densitometry)” value is > 90%.

A further assay addresses T1, PP2A regulatory subunit B56γ. Nature of the assay: anti-FLAG co-IP from HEK TER cells, immunoblot, densitometry.
As to B8, the binding result is “no binding”.

For B5, the binding result is on record as “no binding”.

Take B6: the binding result is listed as “no binding”.

In the case of B9, the binding result was “no binding”.

With B7, the binding result is “no binding”.

For the molecule B10, the binding result was “no binding”.

Consider B11, for which the binding result is reported as “no binding”.

Another assay addresses B8. The assay is described as above.
With B12, the binding result was “no binding”.

Another assay addresses B11. The description is as above.
As for B12, the binding result is “no binding”.

The next assay has as its target B4. The assay is described as follows: reciprocal co-IP (anti-HA, anti-FLAG agarose) from 293T cells, immunoblot.
Description: HA-tagged wild-type RalA were generated in the retroviral vectors pPs-neo and pBabe-puro. […] The supernatants from the first immunoprecipitation were sequentially incubated with anti-FLAG-agarose (M2), or anti-HA-agarose (HA7) in reciprocal manner. […] Densitometry analysis was performed by using Scion Image Software.
As for B13, the binding result was “binds”.

A further assay concerns the target B4. The assay is described as follows: GST pull-down with glutathione-agarose from 293T lysates, immunoblot.
In the case of B14, the binding result is given as “no binding”.

In another assay the target is B4. Nature of the assay: anti-FLAG co-IP from HEK TER cells, immunoblot.
On to B12, for which the binding result is on record as “binds”.

Source of the values: patent US20110306057A1 (Dana-Farber, published 2011).
